Results from the supplement of paper PMC9170038.

Test system: MS2 coat protein
Experiment: apparent KD of MS2 coat protein; designed switch direction (-1 OFF switch, 1 ON switch): -1; higher = weaker reporter binding
Summary of the method: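 Each step of the titration lasted 0.8–1.5 h at the lowest concentration and 10–20 min at the highest. The protein, SNAP-549-labelled MS2 coat protein, went from 0.7 or 1.5 nM doubling to 3 µM over RNA switches transcribed on Illumina chips by stalled E. coli RNA polymerase. Normalised cluster fluorescence was curve-fitted, and the per-design median over clusters is given as apparent KD.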

[1] = Eterna round: R95, input ligand: microRNA oligo, concentration not stated
[2] = Eterna round: R95, input ligand: FMN 200 uM
[3] = Eterna round: R95, input ligand: none
[4] = input ligand: microRNA oligo, concentration not stated

Row | Sequence | apparent KD of MS2 coat protein [1] | apparent KD of MS2 coat protein (input ligand: FMN 200 uM) | apparent KD of MS2 coat protein (input ligand: none) | apparent KD of MS2 coat protein [2] | apparent KD of MS2 coat protein [3] | apparent KD of MS2 coat protein [4]
1 | CUUUGACAUGAGGAUCACCCAUGUGAGGAUAUGAUGCGAUCGUCGAAAGACGAUAGCAUCAGAAGGCACAUAUG [Fiskers Ex 1 - 7] (puzzle: Exclusion 1) | 0.0926 µM | – | – | – | – | –
2 | CUAUGGCAAGGAUAUACGUAUCAUGUGACGAUAGCUCAAGAACAUGAGGAUCACCCAUGUAGAAGGUGCGGAGA [Eternabot (L1) Solution 90] (Eterna round: R97, puzzle: Exclusion 2) | – | 0.0542 µM | 0.0546 µM | – | – | –
3 | GCGAAAACAAGCAAGUGAAACAUGAGGAUCACCCAUGUCCUCAUUUGCUCGUCUUAUAAAAGCUAUCGAAAGAUAGC [Mat - Sensor v3 - turn-off var 1 - Eli Mod - D49] (puzzle: Sensor v3, turn-off variant 1) | 0.205 µM | – | – | 0.00941 µM | 0.00978 µM | –
4 | UAUUAGCAAGUGAGAUCCGACAUGAGGAUCACCCAUGUGCUCGUCUUAUAAGGUACUGUGACAAAAGUCACGGUACC [Elimod 2 - Jieux - Sensor, turn-off variant 1] (Eterna round: R97, puzzle: Sensor, turn-off variant 1) | – | 0.2 µM | 0.283 µM | – | – | –
5 | GUCCUGGACUAUCACAAGCACAUGAGGAUCACCCAUGUCAUGGGUAGAUCCAUAAAUAAAGAUACUGCUCGUCUUAU [Cac sensor turnoff var1 sub5] (Eterna round: R97, puzzle: Sensor, turn-off variant 1) | – | 0.177 µM | 0.303 µM | – | – | –
6 | GAGUGACAUGAGGAUCACCCAUGUGAGGAUAUCGGACGGACCUUGUUGGCUUCCGCCGCGAGAAGGCACCUCGG [Exclusion 1 V27] (puzzle: Exclusion 1) | 0.0325 µM | – | – | – | – | –
7 | UUAUCUACUGAGGAUAUUAUAUCACCCGACUGAUAAGAAGGCAGUACAUGAGGAUCACCCAUGUGGGUAGCCAU [Polaris10] (Eterna round: R97, puzzle: Exclusion 6) | – | 0.043 µM | 0.0326 µM | – | – | –
8 | UGUGCGUAUGUGAGGAUAUGCUGGUCCUUGGCUCGGCAGAAGGCACAUGAGGAUCACCCAUGUGGUGUCGUACA [salish99_Bmod_ex4_071] (puzzle: Brourd's mod of Exclusion 4) | 0.158 µM | – | – | – | – | –
9 | AUUGUAUGAUACCUCUAAUACAUGAGGAUCACCCAUGUUAUCGAGGAUAUGCAGAAUAGAUUAGAGCAGAAGGCGAAGUAAUAU [JR_ExcNG3_Sub025] (Eterna round: R96, puzzle: Exclusion NG 3) | – | 0.015 µM | 0.0136 µM | – | – | 0.00908 µM
10 | UUGUUACAUGAGGAUCACCCAUGUGAGGAUAUGGUUCAGUACUGUAAUGUAAAGUACUCCAGAAGGCACAUGUU [1st #28] (Eterna round: R97, puzzle: Exclusion 1) | – | 0.693 µM | 0.264 µM | – | – | –
11 | UAGGAGUCAGGAUAUGCGAGAGAUUGAAGUAUGGGAUGUGAGCAGAAGGGACAUGAGGAUCACCCAUGUAUGGA [JR_Exclu4_Sub093] (puzzle: Exclusion 4) | 0.146 µM | – | – | – | – | –
12 | CCUAUGUGAGGAUAUCACUGGUCUUCUCACUGGAUGAUUAGUGAGAAGGCACAUGAGGAUCACCCAUGUCGGUG [Ex4 - 3 - 51] (puzzle: Exclusion 4) | 0.524 µM | – | – | – | – | –
13 | UAGAAAGAAGUCAGGAUAUCAUGAGUUGCAGCUCAUGAGAAGGGACAUGAGGAUCACCCAUGUAACACGCCUCU [Eternabot (L2) Solution 62] (Eterna round: R97, puzzle: Brourd's mod of Exclusion 4) | – | 0.0289 µM | 0.0248 µM | – | – | –
14 | GGGUGACAUGAGGAUCACCCAUGUCAGGAUAUGAUACUAUGUACUUCGGUACAUAGUAUCAGAAGGGACAUCCC [Ex1-3: 16] (puzzle: Exclusion 1) | 0.0418 µM | – | – | – | – | –
15 | UAUUAACAAGUAAGAUCCCACAUGAGGAUCACCCAUGUUCGUCUUAUAGGUACUGUGACACAAAGUGUCACGGUACC [Mod of Eli's R95 Sensor 3, v1 - 87] (Eterna round: R97, puzzle: Sensor, turn-off variant 1) | – | 0.0369 µM | 0.0449 µM | – | – | –
16 | CAACCUCACAACCGUUAAAACAUGAGGAUCACCCAUGUGCCAUAACGGCGCAUGAUCGAGCUAGGCCCGUCCAUGCA [Razaxe] (Eterna round: R96, puzzle: Sensor v2, turn-off variant) | – | 0.0232 µM | 0.0261 µM | – | – | 0.0188 µM
17 | AGAAGUAGAAACCGAUCCUACAUGAGGAUCACCCAUGUAGCAAGACGUGCACGCGAAGCUCGUCAGACUACCAGAAG [solution 24] (Eterna round: R96, puzzle: Sensor v2, turn-off variant) | – | 0.462 µM | 0.345 µM | – | – | 0.288 µM

Row | Sequence | apparent KD of MS2 coat protein [1] | apparent KD of MS2 coat protein (input ligand: FMN 200 uM) | apparent KD of MS2 coat protein (input ligand: none) | apparent KD of MS2 coat protein [2] | apparent KD of MS2 coat protein [3] | apparent KD of MS2 coat protein [4]
18 | CCUUAGUUAGGAUAUCGGAUUGUUCACGGUGCUCACCGGGUCGAGAAGGAACAUGAGGAUCACCCAUGUCACGA [Eternabot (L1) Solution 72] (Eterna round: R97, puzzle: Exclusion 4) | – | 0.0601 µM | 0.0425 µM | – | – | –
19 | UCUCGCGGGCAAGGAUAUCCUACGUUGUUCUGGCCCGUGUAUGUUACAUGAGGAUCACCCAUGUGGGAGAAGGUGCACCAGGGC [Design 39] (Eterna round: R96, puzzle: Exclusion NG 2) | – | 0.0728 µM | 0.0774 µM | – | – | 0.0438 µM
20 | AAUAACAGAGGAUAUACUGUUUUAUGUGUUUGUUGUUUUGAACAUGAGGAUCACCCAUGUAGAAGGCUGAUUAA [JMF 53] (Eterna round: R96, puzzle: Exclusion 2) | – | 0.0384 µM | 0.0385 µM | – | – | 0.031 µM
21 | CUGUUUUUCGCAGGAUAUGCUUCUCCUUUAUUAGCAGAAGGGCGUUAAACAUGAGGAUCACCCAUGUAUGGUAAUGACAUUUUC [JR_ExcNG1_Sub061] (Eterna round: R96, puzzle: Exclusion NG 1) | – | 0.0983 µM | 0.0243 µM | – | – | 0.0182 µM
22 | UUCGUGCUGCUUUGCUGUACGAGUACAUGAGGAUCACCCAUGUAGGAUAUGGUUCGCUUUGCGUGCUAGAAGGAUAUGUGUUGC [salish99_ExNG3_r04_507] (Eterna round: R96, puzzle: Exclusion NG 3) | – | 0.0262 µM | 0.026 µM | – | – | 0.0178 µM
23 | CUAUGUUAGCAGGAUAUGCCAUUAUUCUUUUUCGCAGAAGGGCUUACAUGAGGAUCACCCAUGUUACAUUUCUU [JR_E6_Sub086] (Eterna round: R96, puzzle: Exclusion 6) | – | 0.0426 µM | 0.0185 µM | – | – | 0.0149 µM
24 | CGGCUGUGAGGAUAUGCCAGGCCGGGCACUCCGCCGCCAGCGCAGAAGGCACAUGAGGAUCACCCAUGUCAAAG [Eternabot (L2) Solution 82] (Eterna round: R97, puzzle: Exclusion 4) | – | 0.0275 µM | 0.0239 µM | – | – | –
25 | CUCUUGUCAGGAUAUCAACGCCGCCCACACGGGCGGCGAAAUGAGAAGGGACAUGAGGAUCACCCAUGUUAAAA [Orsoesarqu] (puzzle: Exclusion 4) | 0.133 µM | – | – | 0.0203 µM | 0.212 µM | –
26 | GAAAAGCAUGUGAGGAUAUGCACACCGGACCGGUGGUAGAAGGCACAUGAGGAUCACCCAUGUGACCAAGAAUA [BmEX4 A.4] (Eterna round: R97, puzzle: Brourd's mod of Exclusion 4) | – | 0.0197 µM | 0.0106 µM | – | – | –
27 | GUCCUCAUGACAUGAGGAUCACCCAUGUAUUAUUUGUUAACUGAGGAUAUACUCUUAUUUUUUAUGUAGAAGGCAGAUUUGUUC [JR_ExcNG3_Sub021] (Eterna round: R96, puzzle: Exclusion NG 3) | – | 0.0431 µM | 0.0312 µM | – | – | 0.0277 µM
28 | UCUCAGUUAGGAUAUUUAAUGUGCCGUGAGGACACGCCUUUGAAGAAGGGACAUGAGGAUCACCCAUGUGAGUA [Eternabot (L2) Solution 44] (Eterna round: R97, puzzle: Exclusion 4) | – | 0.0473 µM | 0.0263 µM | – | – | –
29 | UUCCUCUUUGUGAGGAUAUCGUCCGUUUUUUGUUACGAGAAGGCACAUGAGGAUCACCCAUGUUUUUUGUUUUU [JR_BMOE4_Sub076] (puzzle: Brourd's mod of Exclusion 4) | 0.0214 µM | – | – | – | – | –
30 | AUAAUGUCAGGAUAUCGAACUUACUACUUCGGUAGUAAGUUCGAGAAGGGACAUGAGGAUCACCCAUGUGAUCA [E4/1-A4] (Eterna round: R97, puzzle: Exclusion 4) | – | 0.0418 µM | 0.109 µM | – | – | –
31 | GACUAUUCGUAGGAUAUACUACUUAGCUAUGGAGUAGAAGGACGAACAUGAGGAUCACCCAUGUGGGACCCGGG [Eternabot (L2) Solution 31] (Eterna round: R97, puzzle: Exclusion 6) | – | 0.125 µM | 0.0812 µM | – | – | –
32 | CUUUUGGCAGGAUAUGCUUUUUUUGACAUGAGGAUCACCCAUGUGAUGCAGUUUGGGUUUGCAGAAGGGCCUGAGU [JR_E5_Sub035] (puzzle: Exclusion 5) | 0.101 µM | – | – | – | – | –
33 | CUGGUUGUCGAGGAUAUGCACCAGCUCACUGACGCAGAAGGCGACACAUGAGGAUCACCCAUGUCGGUUCGCGU [salish99_ex6_r004_436] (Eterna round: R97, puzzle: Exclusion 6) | – | 0.0307 µM | 0.0282 µM | – | – | –
34 | AAAUACAAGUAAAGAUCUUACAUGAGGAUCACCCAUGUGCUCGUCUUAUAAAGUACUAUCACGAAAGUGAUAGUACA [Sensor 3, v1 - 25] (puzzle: Sensor v3, turn-off variant 1) | 0.159 µM | – | – | 0.0159 µM | 0.0184 µM | –
